The target in data set [1] is T1, PobR (HIS-atu4545) (Agrobacterium tumefaciens C58) (UniProt Q7CV81).
T1 sequence: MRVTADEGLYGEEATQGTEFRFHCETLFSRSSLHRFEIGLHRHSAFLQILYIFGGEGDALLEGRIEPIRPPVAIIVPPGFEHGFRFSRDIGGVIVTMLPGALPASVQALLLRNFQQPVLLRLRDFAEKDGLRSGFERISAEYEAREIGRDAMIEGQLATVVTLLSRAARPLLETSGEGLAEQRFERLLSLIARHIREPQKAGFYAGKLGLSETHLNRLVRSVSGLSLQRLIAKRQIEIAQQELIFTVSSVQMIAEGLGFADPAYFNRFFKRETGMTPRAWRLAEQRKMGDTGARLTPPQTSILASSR
The data set is described as follows: competition. The note with it: EMSA: per 50 mL binding buffer 0.394 g Tris-base, 0.186 g KCl, 0.019 g EDTA-2Na, 10% glycerol, 0.008 g DTT (about 65 mM Tris, 50 mM KCl, 1 mM EDTA, 1 mM DTT) …. A general note: A gel shift assay detects complexes by their altered migration in electrophoresis.

In data set [2] the target is T2, PobA (Atu4544), GST-atu4544 (Agrobacterium fabrum, UniProt Q7CV80).
T2 construct: full ORF (1,173 bp) in pGEX-4T-1, N-terminal GST tag kept, E. coli BL21(DE3), about 70 kDa with tag
T2 sequence (Q7CV80 1-390): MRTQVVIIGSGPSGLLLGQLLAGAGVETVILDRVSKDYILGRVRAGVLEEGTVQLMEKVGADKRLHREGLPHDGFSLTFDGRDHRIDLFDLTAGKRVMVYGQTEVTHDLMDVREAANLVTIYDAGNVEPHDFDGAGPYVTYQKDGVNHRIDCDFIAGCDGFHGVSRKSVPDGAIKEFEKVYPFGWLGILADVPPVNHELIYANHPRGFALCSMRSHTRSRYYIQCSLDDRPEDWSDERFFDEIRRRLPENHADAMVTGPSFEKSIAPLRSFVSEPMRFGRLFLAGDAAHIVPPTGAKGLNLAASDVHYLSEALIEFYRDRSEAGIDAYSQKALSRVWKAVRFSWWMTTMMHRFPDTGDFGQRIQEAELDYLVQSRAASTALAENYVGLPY
Put plainly: HPLC of substrate consumption and protocatechuate formation. The class given is biochemical. The note with it: NADPH or NADH 0.4 mM, FAD 5 uM, 0.5 mM substrate, 50 mM Tris-Cl pH 7.4, 30 C; GST-tagged enzyme.

For data set [3], the target named is T3, PobR (Atu4545), HIS-atu4545 (Agrobacterium fabrum, UniProt Q7CV81).
T3 construct: full ORF (924 bp) in pET30a, N-terminal His tag kept, E. coli BL21(DE3)
T3 sequence (Q7CV81 1-307): T1 sequence
Put plainly: EMSA, effect on PobR/DNA complex formation. The class given is binding. The note with it: FAM-labelled atu4544-atu4545 intergenic DNA; varying concentrations; pH 8.0, 25 C.

Regarding “CATCGTGACGATCACTCCACCGATATCGCGTGAAAAGCGGAAGCCATGTTCGAAACCCGGTGGCACGATGATGGCGACCGGCGGGCGGATCGGCTCGATGCGGCCTTCCAGCAACGCATCGATCGTCGACCTGCAGGCA (double strand) [unrelated DNA (pobR-inter)]”, the binding result in data set [1] was “no binding”.

On to `O=C(O)c1ccc(O)cc1` [4-hydroxybenzoate], for which the “HPLC of substrate consumption and protocatechuate formation” value in data set [2] is on record as “Atu4544 (PobA) catalyzed the hydroxylation of 4-hydroxybenzoate to produce protocatechuate”.

Regarding “CATCTCACCATCACTCCTCCGTGCGATGGTCGGATTGTGCAATTTACAGACAGAAAAGTCCATTGAGCTTGTGGCCGGTCTTGGTCAATTTCTTGACCGGAGACAAGTTCGGGAGGACATCATCGTCGACCTGCAGGCA (double strand) [unlabeled intergenic competitor]”, the binding result in data set [1] is “binds”.

Take `O=C(O)CCCCC(=O)O` [adipic acid]: in data set [3], the “EMSA, effect on PobR/DNA complex formation” value is given as “The increased adipic acid seemed to hinder the binding of the PobR/DNA probe”.

Values taken from article PMC12285266, “Function and regulation of pob genes for 4-hydroxybenzoate catabolism in Agrobacterium tumefaciens” (Applied and Environmental Microbiology, 2025).
